Laboratory results reported in patent US20120328625A1 (AstraZeneca / MedImmune, published 2012).

What was measured:
[1] = target: T1, Shh-N in conditioned medium (human, UniProt Q15465 24-197, N-terminal palmitoyl modification; lacks the C-terminal cholesterol moiety); experiment: cell-based or functional assay
[2] = target: T2, Recombinant Human/Mouse Indian Hedgehog C28II, amino terminal peptide (R&D Systems cat#1705-HH/CF) (human/mouse (100% sequence identity in …, UniProt Q14623 28-202)); experiment: SPR (Biacore), IgG1 captured on protein G', Ihh as analyte
T2 construct: domain: amino terminal peptide; bought; also called Human/mouse Ihh; Ihh-N C28II
Description: (§1) Protein G was coupled to the CM5 chip surface using standard amine linkage chemistry. Protein G′ was cleared of Tris using a Dulbecco's PBS equilibrated PD-10 column. […] Approximately 500 RUs of protein G were covalently bound to the surface of flow chamber 2 (Fc2). […] Immobilization levels were reproducible between cycles.

[3] = target: T3, Recombinant Human Sonic Hedgehog C24II amino terminal peptide (R&D Systems cat#1845-SH) (human, UniProt Q15465 24-197); experiment: ELISA, apparent KD, purified antibody on immobilized Shh C24II
T3 construct: domain: amino terminal peptide; bought; also called Shh-C24II; C24II peptide
Protocol: (§2) The binding of purified antibodies to recombinant human Shh was determined using an ELISA-based method. The N-terminal signaling domain of Shh, Shh-N, was presented in two forms: as a purified protein isolated from bacteria lacking lipid modifications and as a constituent of conditioned medium in a form that contains the N-terminal palmitoyl modification but lacks the C-terminal cholesterol moiety.
(§3) The plates were sealed and placed on a shaker overnight at 5° C. The next day, the plates were washed 4 times with PBS with 0.05% Tween 20 (PBS-T). […] The plates were washed four times with PBS-T. Titrations of purified antibody (half log serial dilutions over at least six logs with a starting concentration of 30 μg/mL) were made in 100 μl PBS-T and added into wells and incubated with shaking overnight at 4° C. Antibody controls included human IgG2 and IgG4 (Sigma-Aldrich, Cat, #I5404 and #I4639, respectively). […] Following washing with PBS-T, the chemiluminescent Peroxidase substrate (Sigma cat# CPS-2-60) was added at room temperature and incubated for ten minutes with the plate covered by foil. Each well was read for 100 msec in the Spectromax 5e to determine RLU.

[4] = target: T3, Recombinant Human Sonic Hedgehog C24II …; experiment: SPR (Biacore), IgG1 captured on protein G', human Shh as analyte, 1:1 Langmuir
Description: as §1

[5] = target: T1, Shh-N in conditioned medium; experiment: ELISA, apparent KD, purified antibody on immobilized Shh-CM
Protocol: as §2, §3

B1: 3H8OP (antibody, V domains shown)
VH: QVQLVESGGGVVQPGRSLRLSCAASGFTFSTYGMHWVRQAPGKGLEWVAVIWYDGSNKYYADSVKGRFTISRDNSKNTLYLQMNSLRAEDTAVYYCARDLYYYGSGSPFDYWGQGTLVTVSS
VL: EIVMTQSPATLSVSPGERATLSCRASQSVSSNLAWYQQKPGQAPRLLIYGVSIRATGIPARFSGSGSGTEFTLTISSLQSEDFAVYYCQQYNNWPRPGFGGGTKVEIK
What does the source list for B1?
IC50, inhibition of osteoblast differentiation (alkaline phosphatase) of C3H10T1/2 cells [1]: 5600 pM; binding result [2]: no binding; Kd [3]: 82 pM; Kd [4]: 26.1 pM; Kd [5]: 685 pM
